Assay results reported in publication PMC5768722.

Target: Pertuzumab Cλ variants
Test: BLI; antibody light chain variants pre-loaded on Anti-hIgG-Fc Capture (AHC) biosensors, Her2 at 100 nM to 6.25 nM, Octet QKe, 1x kinetic buffer

- Kd: 0.77 to 1.42 nM
Substance: HIS-tagged Her2 (recombinant extracellular portion) (from UniProt P04626 23-652) (domain or fragment)
